Laboratory results reported in the supplement of paper PMC9170038.

System: K4 kissing-loop RNA reporter
Assay: apparent KD of K4 kissing-loop reporter; higher = weaker reporter binding
Conditions: Eterna round: R107
Method: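 RNA-MaP round R107: designed RNA switches with theophylline, tryptophan, arginine or FMN aptamers are transcribed on-chip within common flanks. They are titrated with a labelled K4 kissing-loop RNA reporter in RNA-MaP buffer (100 mM Tris pH 7.5, 80 mM KCl, 4 mM MgCl2), without ligand or with the indicated ligand. Median apparent KD per design.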

[1] = input ligand: theophylline 20 uM
[2] = input ligand: tryptophan 2.4 mM
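Also: bound reporter read as fluorescence of individual clusters on recovered sequencing chips by microscopy, with normalized cluster intensities fitted with a binding model.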

Sequence	apparent KD of K4 kissing-loop reporter (input ligand: FMN 200 uM) [nM]	apparent KD of K4 kissing-loop reporter (input ligand: arginine 13.2 mM) [nM]	apparent KD of K4 kissing-loop reporter (input ligand: none) [nM]	apparent KD of K4 kissing-loop reporter [1] [nM]	apparent KD of K4 kissing-loop reporter [2] [nM]
AAAAUAAACCAGUGAUGUUGGUGUCCAGAUACCAGCGAUAAAAGUCGCCCUUGGCAGCUGUGGACGUACAAAAUAAGUACGUCCU [MatMod 2 - Jieux - Same State - Theophylline A]	703	533	872	529	678
AAAAUAAACCAGUGAUGUUGGUGUCUAGAUACCAGCGACGAAAGUCGCCCUUGGCAGCUGUGGACGUACAAAAUAAGUACGUCCU [MatMod 5 - Jieux - Same State - Theophylline A]	564	327	541	480	472
AAAAUAAUCCAGUGAUGUUGGUAACCAGAUACCAGCGACGAAAGUCGCCCUUGGCAGCUGUGGACGUACAAAAUAAGUACGUCCU	344	415	441	358	312
AAACAUCACUGGGAGUGAUGUUCUCAGUGACGAGGACCGGUACGGCCGCCACUCGCGAGAGAUAUAGUCUAGUAAUGACUGCAUU [Excl Tryptophan A V9]	299	274	292	322	391
AAAGAGUCACUCGAAGCCAUCGAAGAUGGGCGAGGACCGGUACGGCCGCCACUCGGAGUGAUGUUCCGAAGACUGUAAAAUAAAA [MatMod 11 - Jieux - Exclusion - Tryptophan A]	273	242	451	362	355
AAAGAGUCCUGAGCCGAAGAAGAAGGCGGACGAGGACCGGUACGGCCGCCACUCGAAAGGAGUGCGGCUGAGUGAUGUUUGGCCG [Tryptophan A (C-G optomized)]	342	181	284	281	268
AAAGUAUACUGAAGGAGCGAGUAGUGGAAACAUAAACUCAUUGCGAGUGAUGUUCGCAGUACUCAGGUAGGUCGCGGUAAUCGUA [Exclusion Arginine B Gf 12]	499	498	934	554	558
AAAUAAAGCAGUCACCCAGUGAUGUUGGAAGGAGCGUGCGAAAGCACAGGUAGGUCGCCAAAAUAAAGUGGCUGCGGCAAAGCCA [#SwitchBubble 25 #K4Early]	409	428	399	578	305
AAAUAGAUCAGUCAACCAGUGAUGUUGGAAGGAGCGUGCGAAAGCACAGGUAGGUCGCCAUAAUAAAAUUGGCUGAUCAAAAUAA	340	615	648	614	344
AAAUAGAUCAGUCACCCAGUGAUGUUGGAAGGAGCGUGCGAAAGCACAGGUAGGUCGCCAAAAUAAAAGUGGCUGAUCAAAAUAA [#SwitchBubble 5 #K4Early]	336	300	389	526	226
AAAUCGUUCAGAAGGAGCGUGAAUUAUUCUUAAUUAUAUUAUACGAGUGAUGUUCGUGUUUCACAGGUAGGUCGCUGAUCGAUAA [JR_SSArginiB_Sub005]	94.4	126	95.6	148	84.1
AACAUUUUCAGAAGGAGCGUGAAUUAUUCAUAAUUAUAUUAUACGAGUGAUGUUCGUAUUUCACAGGUAGGUCGCUGAUAUAGUA [#02 K4 Arginine B Same State]	94.5	127	104	121	93.1
AACGUUUUGAGAAGGAGCGCGAUAAGCAGUGAUGUUGCUAAAAUUCUAUUUCAAUUUAAUACGCAGGUAGGUCGCUCAAUACGUA [JR_SSArginiB_Sub020]	143	136	138	156	118
AACUCUCAGACACUUGAGUGAUGUUCAGGCCGAGGACCGGUACGGCCGCCACUCGGGUCUGAGAGAGGUUAUCAAAGAUAGCCAA [Omei KL Tryp A SS A v5]	350	194	249	261	273
AAGAGAUAGGGAGGAUAUGCCCUAUUGAGAACCGAGUGAUGUUCGGUAGGACAAAUAGUCCACAGGGUAGAAGGCCCACAUCACA [SS FNM B Tesla 2]	191	213	244	476	267
